# Data from the DeepSol protein solubility set.
# Test: soluble on expression in E. coli; label from the status in PepcDB or PDB records
row,Sequence,soluble on expression in E. coli
1,MARLNVKPTRMELSNLKNRLKTATRGHKLLKDKRDELMRRFVDLIRENNELRQTLEKELAANMKEFVLAKASENSLMVEELFAVPVHEVTLWIDIENIMSVNVPKFHVQSNTAREQEQGEFAYSYLSSNSEMDNTIQKTKELLEKLLRLAEVEKTCQLMADDIEKTRRRVNGLEYSIIPQLEETIHYIELKLEEAERASLVRIMKITSLEHHHHHH,not soluble
2,MARLTVHTLETAPEAAKARVEAVLQNNGFIPNLIGVLSNAPEALAFYQEVGKLNAANSLTAGEVEVIQIIAARTNQCGFCVAGHTKLATLKKLLSEQSVKAARALAAGEFDDAKLGALAAFTQAVMAKKGAVSDEELKAFFDAGYNQQQAVEVVMGVALATLCNYVNNLGQTEINP,not soluble
3,MARMNRPAPVEVTYKNMRFLITHNPTNATLNKFIEELKKYGVTTIVRVCEATYDTTLVEKEGIHVLDWPFDDGAPPSNQIVDDWLSLVKIKFREEPGCCIAVHSVAGLGRAPVLVALALIEGGMKYEDAVQFIRQKRRGAFNSKQLLYLEKYRPKMRLRFKDSNGHRNNCCIQ,soluble
4,MARNPRTTVRRILNSAPRSLLIQSVTIVALDPTDNNHGSHQPGSNGPSNSSTQADNFETETTADEERQKEDGVEDELEDEETTGFIDEDGEIRYPVDEVGNYEIDQEAETDESFYLDTQRDSSLCDERSQLCRSLSDQNLRTTFFLITTTNSKAAILRYLHFHNVSQDSILRKLLLNDSHLTLVEVCNLCAQNIELCKCEDMQEKCQLIFGDLKKWLEVILNSFANIMMKTKTTILEGYNSSSPINKGIFKKKLLSEMADNEMWMHFESSFDGIKVHKNGNQNIWPYSLLNLDLEDVHRASPQALILAALFIGFKNPTTKIHDRLTQWILLQMDEHVFFSEGVAWKADLTCANHDDPARRIVYNQCGLRSSGSCNFCLNQETECKINDEYTTLRENLTGSCPSTMNDGLRQRNQHSHFHKHVLYMHLCPHYSPKGNGICSRQNRWIFHQHLRFHLDFVRCPAKLHSVLVLRKHCIHGLYRLCIEPQSITDETLHLKQVLYHLARMTELYGSLFPLSTQWFEYFYHTIQRTLVPEIYNGLGMSIMRKMSALQEIKTEAAFRLHTNHQFRTEANLKMCYELGLLRRLKRISVVPTPPQYQQFCETGDVFLNVVYHDGIRYSNYCNKKTDDSNVTFIEYARVRFAKIIGMLLKENNTDLRFILKKYCNTNDHLIDISNKLYEEDVPQMHIQNWVDSVSKSSFGGRVTLTNTVVVVSADSIVGHAVVVKRNNNCVALPFSRRISLS,not soluble
5,MARRNDHTREELVALTLDRVKQFLDTHSYHELSLRKVATMIGYVPSTLVNVFGNYNLLLLHVVAQTLDELAQEAQQAVKSTTYPKDALYQLAYCYHDFAKRNPYRWQLIFEHNMNGEMLPEWQAQRINNMTSMLEDLLKVIAPLRSEQEVLQASRVLWSGVHGITILSVDDKFFANEPIDGNALINNLLNHYLANW,not soluble
6,MARTNLQFANLELFVDQLTGAMTFTRTSLLTAAQGALVTRFAEIDGRVKKNLDRVLAAFRQHRLGVHHFSSMTGYGHGDLGREVLDRVFAQVMGAEAALVRVQFVSGTHAIATALFGVLRPGDELISLAGPPYDTLEEVIGLRGQGQGSLKDFGIHYRELPLLASGEPDWGAIATCVQPQTRMVLIQRSCGYTWRPSLSLEDIGKMIQLIKSQNPDVVCFVDNCYGEFVETQEPPHVGADLIAGSLIKNPGGTIATAGGYLAGRADLIEQASYRLTAPGIGHEGGATFDQHRLLFQGLFLAPQMVGEALKCAHLLAYVFDELGYPVNPAPLSRRRDVIQAVQLGSPEKLIAFCRILQRYSPVGSYLDPVPAPMPGYADDLVMAGGTFIDGSTSELSADGPLRPPYIVFCQGGTHHTHMALILEALLEAQVFLEHHHHHH,not soluble
7,MARVRIVAKKNGPYLLEVDGKVQTALCRCGHSNNKPYCDGTHARVGFQADEKVAFEAEFAAALEHHHHHH,not soluble
8,MASETSQFGIETDSITLQRYVLQEQRKHADASGELTALLTNMLVAIKAIASATQKAGLAKLYGIAGATNVQGEEVKKLDVLSNELMINMLKSSYTTCLLVSEENDELIEVEEQRRGKYIVTFDPLDGSSNIDCLVSIGTIFGIYKKRGDGPATVDDVLKPGKEMVAAGYALYGSATMVVLSTGDGVNGFTLDPSIGEFILTHPNMKCKEKGSIYSLNEGYAQTWSKGFAEYIRTRKYPEAGKKAMGQRYVGSMVADVHRTILNGGIFLYPPTVSAPNGKLRLLYECNPMAYIIEQAGGLATTGKERILDIQPTQIHQRAPIILGSKLDVEEALEYLAKYDN,not soluble
9,MASFARRAMSLAQIPSARISSGAASIGQRRCLAGAADHHGSTKVDFWKQPTNPGNWKEEHFVLISLSGWGLLFYSGYKLATGGKKEYTMSFIVTRKTFYGETSHSHALCFPF,not soluble
10,MASFSILSIFKIGVGPSSSHTIGPMEAGARFCESLKGILEQVVRVQITLHGSLALTGKGHLSDEAVLIGLHGIYANELEVTTKKALLHEALENKVLKLANQHHIPFDYAKDLIFDNKPLTRHQNALILKAFNSKNEVLKEETYYSVGGGFVYTEKELDNLSEEDGNESIAYDFSSAKELLELCQKHQKSIAEIVRLRENALKNHPDATMVKIYHAMLECYDNGANSKERYLPGSLKVTRLAPSIKTRLEKHPTSGKDPLALIDYISLYARAIAEENASGGKVVTAPTNGACAVVPSVLLYAKNHLFENLSQKAINDFLLTSAAIGYLYKKNASLSGAEAGCQAEIGVASSMAAGGLAHLCQATTQQVLIASEIAMEHHLGLTCDPVGGLVQIPCIERNVLGAIKAISASKLALEDEYKPKVSLDEVIATMYATGKDMNEKYKETSLGGLAKTLKC,not soluble
11,MASFVTSKRDFRARAHSNPLNDAEFLVPEDPLRFDWSPFIPDVGSHPIDYVDLGCGYGGLLCELSIAFPNKYMLGMEIRDRVASYCVTKLEELRRLNSKGYRNIGFIRTNCMKFLPFYFPPSSVEKFFICFPDPHFKKKKHRQRLVSLRFLSEAAYCLRPGGMIYIVTDVEELFAWMTNLFAQHPLFLTMDKELVKQQDVLLPYLLNHTDEAQRMKRRGQDTPYWNVFQRKTVFC,not soluble
12,MASIELRNVQTELAAKNLQFKVLTEKFLEQRKELFDAKKTDSNVEYVECLSEKLRVATERISDLEKETKEGKQVANEEIGRLEKLLREAQQKRDAKIDESYQTFLRIELLVANLGESTDPENEKRIKNLMPAAKTGIPPEGVLRLTINALDSAARESKKKTMAIESLTKQVDDANKLTEVYMKRLEELEDKHRFEEALTLKIQAMMIETTGQLEAQKKIIADLQKKNDDLMKEEEGEEDYEEEENYEVEEDFEDEEEYDEEGEEEDYE,not soluble
13,MASKIEQPRWASKDSAAGAASTPDEKIVLEFMDALTSNDAAKLIEYFAEDTMYQNMPLPPAYGRDAVEQTLAGLFTVMSIDAVETFHIGSSNGLVYTERVDVLRALPTGKSYNLSILGVFQLTEGKITGWRDYFDLREFEEAVDLPLRG,soluble
14,MASKPEKRVASSVFITLAPPRRDV,soluble
15,MASKRLGKQTVMLQNPPRITSTASIVGPKEGKGPLRLFFDNIIEDEMWGEKSWEKAESKLIRETFSKVLQKGNKTSQEIDYVISGDLLNQCIAANFGLRESDVPFFGVYGACSTIAESMSIGAMLVDGGFADNVVCITSSHFCSAEKQFRFPLELGTQRPPSAQWTVTGSGGVLISNDGSGPYITHITTGKIVDMGIKDANNMGAAMAPAAVDTIVTHFKDTGFTPESYDLILTGDLGAIGREICVELTREQGFNIENIYNDCGLMIYDREKQDTHAGGSGCGCAATVFAGFVYKKLMDGTLKNVLFVATGALLSPVSTQQGESIPSIAHAISITTSPER,soluble
16,MASLKVPSNVPLPEDDAEQLHKAFSGWGTNEKLIISILAHRNAAQRSLIRSVYAATYNEDLLKALDKELSSDFERAVMLWTLDPPERDAYLAKESTKMFTKNNWVLVEIACTRPALELIKVKQAYQARYKKSIEEDVAQHTSGDLRKLLLPLVSTFRYEGDDVNMMLARSEAKILHEKVSEKSYSDDDFIRILTTRSKAQLGATLNHYNNEYGNAINKNLKEESDDNDYMKLLRAVITCLTYPEKHFEKVLRLSINKMGTDEWGLTRVVTTRTEVDMERIKEEYQRRNSIPLDRAIAKDTSGDYEDMLVALLGHGDA,soluble
17,MASLLDKAKDFVADKLTAIPKPEGSVTDVDLKDVNRDSVEYLAKVSVTNPYSHSIPICEISFTFHSAGREIGKGKIPDPGSLKAKDMTALDIPVVVSYSILFNLARDVGVDWDIDYELQIGLTIDLPVVGEFTIPISSKGEIKLPTFKDFF,soluble
18,MASMTGGQQMGRGSMQNPSVTISVNANAGRHPINPAVYGLAYATTATLADLNVPLHRYGGNNTSRYNWQLNADNRGADWYFESIGEASSVAGERGDTFIANSQAAGAQAMITIPTIGWVARLGANRSKLASFSIAKYGAQSGNDWQWFPDAGNGVLTSGQNVTGNNPNDANTLVDSTFQQGWAQHLVSQWGTAAGGGLRYYILDNEPSIWFSTHRDVHPVGPTMDEIRDKMLDYGAKIKTVDPSALIVGPEEWGWSGYTLSGYDQQYGGLHGWSFMPDRNNHGGWDYLPWLLDQLRQNNLSTGRRLLDVFSVHYYPQGGEFGNDTSSAMQLRRNRSTRSLWDPNYIDETWINDKVQLIPRLKNWVSTYYPGTLTAITEYNWGAESHINGATTQADILGIFGREGLDMAARWTTPDTATPTYKAIKMYRNYDGNKSAFGDTSVTATAPNPDNVSAFAAVRSSDGALTVMVINKYLSGNTPATINLSNFTAQAQAQVWQLTAANTINHLSNVSLSGSSLSLTLPAQSVTLLVIPAST,soluble
19,MASVAAARAVPVGSGLRGLQRTLPLVVILGATGTGKSTLALQLGQRLGGEIVSADSMQVYEGLDIITNKVSAQEQRICRHHMISFVDPLVTNYTVVDFRNRATALIEDIFARDKIPIVVGGTNYYIESLLWKVLVNTKPQEMGTEKVIDRKVELEKEDGLVLHKRLSQVDPEMAAKLHPHDKRKVARSLQVFEETGISHSEFLHRQHTEEGGGPLGGPLKFSNPCILWLHADQAVLDERLDKRVDDMLAAGLLEELRDFHRRYNQKNVSENSQDYQHGIFQSIGFKEFHEYLITEGKCTLETSNQLLKKGIEALKQVTKRYARKQNRWVKNRFLSRPGPIVPPVYGLEVSDVSKWEESVLEPALEIVQSFIQGHKPTATPIKMPYNEAENKRSYHLCDLCDRIIIGDREWAAHIKSKSHLNQLKKRRRLDSDAVNTIESQSVSPDHNKEPKEKGSPGQNDQELKCSV,soluble
20,MASYKGLIVDVNGRSHENNLAHRTREIDRERLIVRRGQPFSITLQCSDSLPPKHHLELVLHLGKRDEVVIKVQKEHGARDKWWFNQQGAQDEILLTLHSPANAVIGHYRLAVLVMSPDGHIVERADKISFHMLFNPWCRDDMVYLPDESKLQEYVMNEDGVIYMGTWDYIRSIPWNYGQFEDYVMDICFEVLDNSPAALKNSEMDIEHRSDPVYVGRTITAMVNSNGDRGVLTGRWEEPYTDGVAPYRWTGSVPILQQWSKAGVRPVKYGQCWVFAAVACTVLRCLGIPTRPITNFASAHDVDGNLSVDFLLNERLESLDSRQRSDSSWNFHCWVESWMSREDLPEGNDGWQVLDPTPQELSDGEFCCGPCPVAAIKEGNLGVKYDAPFVFAEVNADTIYWIVQKDGQRRKITEDHASVGKNISTKSVYGNHREDVTLHYKYPEGSQKEREVYKKAGRRVTEPSNEIAEQGRLQLSIKHAQPVFGTDFDVIVEVKNEGGRDAHAQLTMLAMAVTYNSLRRGECQRKTISVTVPAHKAHKEVMRLHYDDYVRCVSEHHLIRVKALLDAPGENGPIMTVANIPLSTPELLVQVPGKAVVWEPLTAYVSFTNPLPVPLKGGVFTLEGAGLLSATQIHVNGAVAPSGKVSVKLSFSPMRTGVRKLLVDFDSDRLKDVKGVTTVVVHKKYRSLITGLHTD,soluble
